{
  "source": "patent US20240376186A1",
  "about": "(published 2024)",
  "binders": {"B1": {"name": "EWEnH (other)", "chain": "EWEQVQLVETGGGLVQAGGSLRLSCAASGSIFSINAMGWFRQAPGKEREFVATINRSGGRTYYADSVKGRFTISRDNGKNMVYLQMHSLKPEDTAIYYCAAGTGWSPQTDNEYNYWGQGTQVTVSSGGGGSGGGGSGGGGSGGGGSRPCGHPGDTPFGTFTLTGGNVFEYGVKAVYTCNEGYQLLGEINYRECDTDGWTNDIPICEVVKCLPVTAPENGKIVSSAMEPDREYHFGQAVRFVCNSGYKIEGDEEMHCSDDGFWSKEKPKCVEISCKSPDVINGSPISQKIIYKENERFQYKCNMGYEYSERGDAVCTESGWRPLPSCEEA"}, "B2": {"name": "EWEµH (other)", "chain": "EWEQVQLVETGGGLVQAGGSLRLSCAASGSIFSINAMGWFRQAPGKEREFVATINRSGGRTYYADSVKGRFTISRDNGKNMVYLQMHSLKPEDTAIYYCAAGTGWSPQTDNEYNYWGQGTQVTVSSGGGGSGGGGSGGGGSGGGGSRPCGHPGDTPFGTFTLTGGNVFEYGVKAVYTCNEGYQLLGEINYRECDTDGWTNDIPICEVVKCLPVTAPENGKIVSSAMEPDREYHFGQAVRFVCNSGYKIEGDEEMHCSDDGFWSKEKPKCVEISCKSPDVINGSPISQKIIYKENERFQYKCNMGYEYSERGDAVCTESGWRPLPSCEEAGGGGGGGGGGGGGKCGPPPPIDNGDITSFPLSVYAPASSVEYQCQNLYQLEGNKRITCRNGQWSEPPKCLHPCVISREIMENYNIALRWTAKQKLYSRTGESVEFVCKRGYRLSSRSHTLRTTCWDGKLEYPTCAKRENLYFQG"}, "B3": {"name": "EWE-hC3Nb1 (VHH)", "VHH": "QVQLVETGGGLVQAGGSLRLSCAASGSIFSINAMGWFRQAPGKEREFVATINRSGGRTYYADSVKGRFTISRDNGKNMVYLQMHSLKPEDTAIYYCAAGTGWSPQTDNEYNYWGQGTQVTVSS"}},
  "data": [
    {"target": "C3b (UniProt P01024 23-667; P01024 749-1663)", "sequence (P01024 23-667, chain 1 of 2)": "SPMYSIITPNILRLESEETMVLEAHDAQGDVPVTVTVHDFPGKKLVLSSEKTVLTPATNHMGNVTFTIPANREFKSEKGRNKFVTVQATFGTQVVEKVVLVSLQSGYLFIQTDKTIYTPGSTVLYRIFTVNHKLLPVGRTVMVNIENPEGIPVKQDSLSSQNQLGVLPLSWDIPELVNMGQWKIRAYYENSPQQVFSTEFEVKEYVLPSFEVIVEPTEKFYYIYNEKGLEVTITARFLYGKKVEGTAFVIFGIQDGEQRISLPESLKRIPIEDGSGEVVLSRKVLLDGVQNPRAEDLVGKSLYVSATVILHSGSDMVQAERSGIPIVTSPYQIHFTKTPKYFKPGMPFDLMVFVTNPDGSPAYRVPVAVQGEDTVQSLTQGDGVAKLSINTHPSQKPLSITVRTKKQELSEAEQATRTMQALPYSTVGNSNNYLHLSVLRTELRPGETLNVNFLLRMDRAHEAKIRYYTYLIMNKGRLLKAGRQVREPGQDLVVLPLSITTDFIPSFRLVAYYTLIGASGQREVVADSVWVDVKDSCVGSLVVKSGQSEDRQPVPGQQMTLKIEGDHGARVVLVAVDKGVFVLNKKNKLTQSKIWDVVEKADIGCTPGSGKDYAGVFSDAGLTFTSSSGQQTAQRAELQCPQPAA", "sequence (P01024 749-1663, chain 2 of 2)": "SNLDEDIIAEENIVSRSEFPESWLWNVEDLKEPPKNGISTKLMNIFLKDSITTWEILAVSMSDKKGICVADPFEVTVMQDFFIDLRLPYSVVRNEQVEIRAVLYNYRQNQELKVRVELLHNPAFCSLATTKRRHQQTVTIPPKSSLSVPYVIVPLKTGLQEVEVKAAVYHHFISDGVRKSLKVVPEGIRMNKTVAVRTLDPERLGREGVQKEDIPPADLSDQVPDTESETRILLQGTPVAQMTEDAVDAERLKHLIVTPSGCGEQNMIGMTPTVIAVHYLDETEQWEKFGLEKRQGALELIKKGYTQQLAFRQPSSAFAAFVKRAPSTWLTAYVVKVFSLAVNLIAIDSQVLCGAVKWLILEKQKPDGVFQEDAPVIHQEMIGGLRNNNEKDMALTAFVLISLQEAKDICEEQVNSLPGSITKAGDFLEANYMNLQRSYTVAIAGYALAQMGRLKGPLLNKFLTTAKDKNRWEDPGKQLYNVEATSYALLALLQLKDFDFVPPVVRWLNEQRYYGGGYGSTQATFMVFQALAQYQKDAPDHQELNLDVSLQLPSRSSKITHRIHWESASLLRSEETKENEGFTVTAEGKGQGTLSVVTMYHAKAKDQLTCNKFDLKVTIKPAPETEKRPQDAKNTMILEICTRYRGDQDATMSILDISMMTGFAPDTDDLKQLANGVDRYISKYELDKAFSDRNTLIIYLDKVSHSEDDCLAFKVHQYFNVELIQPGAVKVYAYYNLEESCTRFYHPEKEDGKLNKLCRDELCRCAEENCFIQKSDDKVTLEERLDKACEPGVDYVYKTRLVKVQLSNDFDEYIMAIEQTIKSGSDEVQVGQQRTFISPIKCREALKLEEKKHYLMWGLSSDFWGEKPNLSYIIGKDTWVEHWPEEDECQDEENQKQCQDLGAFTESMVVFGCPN", "experiment": "BLI", "units": {"Kd": "nM"}, "values": [
      {"binder": "B1", "Kd": 7.1},
      {"binder": "B2", "Kd": 0.4},
      {"binder": "B3", "Kd": 3}
    ]}
  ]
}
